Experiments:
Assay in all cases: cell-based or functional assay
[1] = target: T1, human ENTPD2, full length, on cells (human, UniProt Q9Y5L3 1-495)
T1 sequence: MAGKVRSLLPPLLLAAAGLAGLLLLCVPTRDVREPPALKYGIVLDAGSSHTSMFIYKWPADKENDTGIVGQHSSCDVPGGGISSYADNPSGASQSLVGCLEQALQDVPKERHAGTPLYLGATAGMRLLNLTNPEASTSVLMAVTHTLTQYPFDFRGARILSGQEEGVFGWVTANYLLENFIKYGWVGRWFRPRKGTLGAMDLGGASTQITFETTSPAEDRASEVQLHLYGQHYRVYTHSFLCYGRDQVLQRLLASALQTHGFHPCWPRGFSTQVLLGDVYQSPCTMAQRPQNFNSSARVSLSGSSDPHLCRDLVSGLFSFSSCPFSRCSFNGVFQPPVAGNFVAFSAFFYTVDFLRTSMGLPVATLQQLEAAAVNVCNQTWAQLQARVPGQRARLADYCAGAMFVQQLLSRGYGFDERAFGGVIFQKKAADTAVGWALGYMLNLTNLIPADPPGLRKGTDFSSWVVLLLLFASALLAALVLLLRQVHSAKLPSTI

[2] = target: T2, cynomolgus ENTPD2, full length, on cells (cynomolgus macaque, UniProt Q9Y5L3 1-495 (human entry))
T2 chain: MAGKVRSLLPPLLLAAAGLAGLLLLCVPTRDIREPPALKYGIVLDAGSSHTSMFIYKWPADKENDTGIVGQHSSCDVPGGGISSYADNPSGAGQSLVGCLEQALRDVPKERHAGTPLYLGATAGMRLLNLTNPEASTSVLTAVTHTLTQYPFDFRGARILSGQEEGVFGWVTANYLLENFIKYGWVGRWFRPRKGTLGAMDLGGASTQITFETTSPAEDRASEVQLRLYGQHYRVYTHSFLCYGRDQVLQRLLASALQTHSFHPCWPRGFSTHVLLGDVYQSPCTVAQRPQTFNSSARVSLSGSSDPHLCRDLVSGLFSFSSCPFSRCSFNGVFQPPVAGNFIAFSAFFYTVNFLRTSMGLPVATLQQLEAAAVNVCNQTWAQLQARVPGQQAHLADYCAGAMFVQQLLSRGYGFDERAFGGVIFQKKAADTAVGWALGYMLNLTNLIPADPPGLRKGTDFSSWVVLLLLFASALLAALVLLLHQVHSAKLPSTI

[3] = target: recombinant human ENTPD2 extracellular domain (residues 29-462) with C-terminal Avi-His6 tag (human, UniProt Q9Y5L3 29-462)

Row | Binder | Human ENTPD2 NIH/3T3 Assay % inhibition [1] [%] | Human ENTPD2 NIH/3T3 Assay IC50 [1] [nM] | RKO Assay % inhibition [1] [%] | RKO Assay IC50 [1] [nM] | Cyno ENTPD2 NIH/3T3 Assay % inhibition [2] [%] | Cyno ENTPD2 NIH/3T3 Assay IC50 [2] [nM] | ENTPD2 Biochemical Assay at 1 uM ATP IC50 [3] [nM]
1 | ANTI-HUMAN ENTPD2 MAB8 (antibody, human IgG1, lambda, V domains shown) VH: QVQLQQSGPGLVKPSQTLSLTCAISGDSVSSSSAAWNWIRQSPSRGLEWLGRIYYRSKWYNDYAVSVKSRITINPDTSKNQFSLQLNSVTPEDTAVYYCARGSYVTSSYEGFDYWGQGTLVTVSS VL: SYELTQPLSVSVALGQTARITCSGDNLPEKYAYWYQQKPGQAPVLVIYDDNKRPSGIPERFSGSNSGNTATLTISRAQAGDEADYYCQSYGKWGWTWVFGGGTKLTVLG | 97 | 0.1 | 95 | 0.2 | 96 | 0.9 | 
2 | ANTI-HUMAN ENTPD2 MAB11 (antibody, human IgG1, kappa, V domains shown) VH: EVQLLESGGGLVQSGGSLRLSCAASGFTFSSYAMSWVRQAPGKGLEWVSVISGSGGSTYYADSVKGRFTISRDNSKNTLYLQMNSLRAEDTAVYYCARGDDYGDDYYYYGMDVWGQGTTVTVSS VL: not shown | 55 | 1.5 |  |  |  |  | 
3 | ANTI-HUMAN ENTPD2 MAB19 (antibody, human IgG1, kappa, V domains shown) VH: EVQLQQFGAELVKPGTSVKISCKASGYTFTDYNMDWVKQSHGKSLEWIGDINPNYDITTYNQRFKGKATLTVDKSSSTAYMELRSLTSEDTAVYYCARRGFFPYYGNSYYYFDVWGAGTTVTVSS VL: QIVLTQSPTIMSASLGEEITLTCSASSSVSYMHWYQQKSGTSPKLLIYSTSNLASGVPSRFSGSGSGTFYSLTISSVEAEDAADYYCHQWSNYPWTFGGGTKLEIKR |  |  |  |  |  |  | 4.09
4 | ANTI-HUMAN ENTPD2 MAB20 (antibody, human IgG1, kappa, V domains shown) VH: EVQLQQFGAELVKPGASVKISCKASGYTFTDYNMDWVKQSHGKSLEWIGDINPNYDITSYNQKFKGKATLTVDKSSSTAYMELRSLTSEDTAVYYCARRGFFLYYGSSYYYFDVWGAGTTVTVSS VL: QIVLTQSPAIMSASLGEEITLTCSASSSVSYMHWYQQKSGTSPKLLIYSTSNLASGVPSRFSGSGSGTFYSLTISSVEAEDAADYYCHQWSSYPWTFGGGTKLEIKR |  |  |  |  |  |  | 17.5
5 | ANTI-HUMAN ENTPD2 MAB2 (antibody, human IgG1, kappa) heavy: not shown light: EIVLTQSPATLSASPGERITLSCSASSSVSYIHWYQQKPGQAPRLLIYSTSNLASGIPARFSGSGSGTFYTLTISSVEPEDAAVYYCHQWSSYPWTFGGGTKLEIKRTVAAPSVFIFPPSDEQLKSGTASVVCLLNNFYPREAKVQWKVDNALQSGNSQESVTEQDSKDSTYSLSSTLTLSKADYEKHKVYACEVTHQGLSSPVTKSFNRGEC | 98 | 1.4 | 86 | 0.8 | 84 | 2.7 | 
6 | ANTI-HUMAN ENTPD2 MAB3 (antibody, human IgG1, kappa, V domains shown) VH: QVQLVQSGAEVVKPGASVKISCKASGYTFTDYNMDWVKQAPGQRLEWIGDINPKYDISTYNQQFKGKATITVDTSASTAYMELSSLRSEDTAVYYCARRGFFLYYGINYYYFDVWGQGTLVTVSS VL: EIVLTQSPATLSASPGERITLSCSASSSVSYIHWYQQKPGQAPRLLIYSTSNLASGIPARFSGSGSGTFYTLTISSVEPEDAAVYYCHQWSSYPWTFGGGTKLEIKR | 91 | 1.8 | 95 | 1.6 | 84 | 5.8 | 
7 | ANTI-HUMAN ENTPD2 MAB7 (antibody, human IgG1, kappa) heavy: not shown light: EIVLTQSPATLSASPGEEITLSCSASSSVSYIHWYQQKPGQAPRLLIYSTSNLASGIPARFSGSGSGTFYTLTISSVEPEDAAVYYCHQWSSYPWTFGGGTKLEIKRTVAAPSVFIFPPSDEQLKSGTASVVCLLNNFYPREAKVQWKVDNALQSGNSQESVTEQDSKDSTYSLSSTLTLSKADYEKHKVYACEVTHQGLSSPVTKSFNRGEC | 95 | 0.8 | 92 | 0.6 | 82 | 2.7 | 
8 | ANTI-HUMAN ENTPD2 MAB4 (antibody, human IgG1, kappa, V domains shown) VH: QIQLQESGPGLVKPSQTLSLTCTVSGYSITSGYYWNWIRQHPGKGLEWIGYISYDADNNYNPSLKNRVTISRDTSKNQFSLKLSSVTAADTAVYYCAGGYYRYGLGSYRGSYYYVMDYWGQGTTVTVSS VL: ETVLTQSPATLSVSPGERATISCKASQSVDYEGHSYMNWYQQKPGQAPRLLIYAASNLESGIPARFSGSGSGTDFTLTISSVEPEDAATYYCQQSNEDPPTFGGGTKLEIKR | 87 | 0.2 | 74 | 0.2 | 75 | 2.2 | 
9 | ANTI-HUMAN ENTPD2 MAB6 (antibody, human IgG1, kappa, V domains shown) VH: QVQLQESGPGLVKPSQTLSLTCTVSGYSITSGYYWNWIRQHPGKGLEWMGYISYDADNNYNPSLKNRITISRDTSKNQFSLKLSSVTAADTAVYYCAGGYYRYGLGSYSGSYYYVMDYWGQGTTVTVSS VL: DTQMTQSPSSLSVSVGDRATITCKASQSVDYEGHSYMNWYQQKPGKAPKLLIYAASNLESGVPSRFSGSGSGTDFTLTISSVQPEDFATYYCQQSNEDPPTFGGGTKLEIKR | 95 | 0.3 | 90 | 0.2 | 73 | 3.3 | 
10 | ANTI-HUMAN ENTPD2 MAB5 (antibody, human IgG1, kappa, V domains shown) VH: QIQLQESGPGLVKPSQTLSLTCTVSGYSITSGYYWNWIRQHPGKGLEWIGYISYDADNNYNPSLKNRVTISRDTSKNQFSLKLSSVTAADTAVYYCAGGYYRYGLGSYRGSYYYVMDYWGQGTTVTVSS VL: ETVLTQSPATLSVSPGERATISCKASQSVDYDGNSYMNWYQQKPGQAPRLLIYAASNLESGIPARFSGSGSGTDFTLTISSVEPEDAATYYCQQSNEDPPTFGGGTKLEIKR | 95 | 0.3 | 80 | 0.2 | 80 | 1.5 | 
11 | ANTI-HUMAN ENTPD2 MAB18 (antibody, human IgG1, kappa, V domains shown) VH: DIQLQESGPGLVKPSQSLSLTCSVTGYSITSGYYWNWIRQFPGNKLEWMGYISYDGDNNYNPSLKNRISITRDTSKNQFFLKLSSVTTEDTATYYCAGGYYRYGLGSYSGSYYYVMDYWGQGTSVTVSS VL: DTVLTQSPASLAVSLGQRATISCKASQSVDYDGNSYMNWYQQKPGQPPKLLIYAASNLESGIPARFSGSGSGTDFTLNIHPVEEEDAATYYCQQSNEDPPTFGGGTKLEIKR | 88 | 0.4 |  |  | 68 | 20 | 
12 | ANTI-HUMAN ENTPD2 MAB9 (antibody, human IgG1, lambda, V domains shown) VH: QVQLVQSGAEVKKPGSSVKVSCKASGGTFDSYAVSWVRQAPGQGLEWMGRIVPWLGHTQYAQKFQGRVTITADESTSTAYMELSSLRSEDTAVYYCARESPGYRYSFDVWDQGTLVTVSS VL: SYELTQPLSVSVALGQTARITCSGDAIGEKYVYWYQQKPGQAPVLVIYDDNNRPSGIPERFSGSNSGNTATLTISRAQAGDEADYYCASYDLQQARWVFGGGTKLTVLG | 92 | 0.3 | 70 | 0.1 | 71 | 0.3 | 
13 | ANTI-HUMAN ENTPD2 MAB10 (antibody, human IgG1, lambda, V domains shown) VH: QVQLVQSGAEVKKPGSSVKVSCKASGGTFDSYAVSWVRQAPGQGLEWMGRIVPWLGFTRYAQKFQGRVTITADESTSTAYMELSSLRSEDTAVYYCARESPGYRYSFDVWDQGTLVTVSS VL: SYELTQPLSVSVALGQTARITCSGDAIGEKYVYWYQQKPGQAPVLVIYDDNNRPSGIPERFSGSNSGNTATLTISRAQAGDEADYYCASYDLQQARWVFGGGTKLTVLG | 88 | 0.4 | 77 | 0.2 | 86 | 0.5 | 
14 | ANTI-HUMAN ENTPD2 MAB12 (antibody, human IgG1, kappa, V domains shown) VH: EVLLVESGGGLVQPGGSLRLSCAASGFTFNSCSMNWVRQAPGKGLEWVSYISSSSSTIYYADSVKGRFTISRDNAKNSLYLQMNSLKDEDTAVYYCARDQGNWNYDDYYNGLDVWGQGTTVTVSS VL: not shown | 68 | 26.6 |  |  |  |  | 
